Data published in publication PMC6862599, “Molecular Cloning and Exploration of the Biochemical and Functional Analysis of Recombinant Glucose-6-Phosphate Dehydrogenase from Gluconoacetobacter diazotrophicus PAL5” (International Journal of Molecular Sciences, 2019).

B1: G6PD from GDI (Gluconacetobacter diazotrophicus PA1 5) (protein)
chain: MDGIVASASSEIQGAGLQPRRAPPCTFVVFGGGGDLTKRLLVPAIYNLACAGLLDDGFSIVAVDWAELSDDILRAQFHEALQDFVAKRGTAAAVLRDDIWRWLNTRVSYLRGSFEDPATFERLGARIGSGNAVFYLAVAARFFGTIVDRLGESHLTDEVGETYRRVIVEKPFGHDLNSARELNIRLLRTLRERQIYRIDHYLGKETVQNIMALRFSNGFFEPLWNRQNIDHVQITAAETVGVEKRGRFYEGTGALRDMVPNHLMQLLAMTAMEAPVSFDADAVRDEKSKVLKAIHCTGPEDVVRGQYGGGVLGGTPVRGYRDEPDVAPASRTETYVAMKLAIDNWRWAGVPFYLRTGKRLAVRKTEIAIHFRRAPYALFRDTPVDRLTPNIMTIHIQPTEGVTLQFGAKIPGPTVRLGGVRMKFDYSEWFSEGPSTGYETLIYDCLTGDATLFQRADNIEAGWRAVQPALDWGERTEAAPLCPYAAGSAGPIEADALLARDGRQWQDLAE
notes: full-length, N-terminal His6 tag removed by TEV protease, E. coli BL21(DE3)pLysS, 510 residues (ORF 1530 bp), 56,483 Da monomer, homotetramer 220 kDa

Assays:
[1] = biological target: glucose-6-phosphate dehydrogenase (G6PD) from Gluconacetobacter diazotrophicus PAL5 (Gluconacetobacter diazotrophicus PAL5); assay: SEC; Sephacryl 200 (16/60) gel filtration column, 100 mM Tris-HCl pH 7.35, 0.01 M MgCl2, 0.3 mL/min, AKTA pure FPLC; calibrated with Bio-Rad gel filtration standard; oligomeric state of the native protein
[2] = substrate: O=P(O)(O)OC[C@H]1OC(O)[C@H](O)[C@@H](O)[C@@H]1O; assay: purified protein; format: biochemical, Gluconacetobacter diazotrophicus; conditions: NADP+ fixed at 72 µM (~10-fold Km), G6P 0 to 2 mM
[3] = substrate: NC(=O)c1ccc[n+]([C@@H]2O[C@H](COP(=O)(O)OP(=O)(O)OC[C@H]3O[C@@H](n4cnc5c(N)ncnc54)[C@H](OP(=O)(O)O)[C@@H]3O)[C@@H](O)[C@H]2O)c1; assay: purified protein; format: biochemical, Gluconacetobacter diazotrophicus; conditions: G6P fixed at 630 µM (~10-fold Km), NADP+ 0 to 250 µM

| Molecule | stoichiometry N [1] | Km [2] [µM] | Km [3] [µM] |
| --- | --- | --- | --- |
| glucose-6-phosphate dehydrogenase (G6PD) from Gluconacetobacter diazotrophicus PAL5 (enzyme) | 4 | – | – |
| B1 | – | 63 | 7.2 |
